Measured values as given in patent US20240209065A1 (SINGLOMICS BEIJING DANXU BIOPHARMACEUTICALS, published 2024).

Legend:
Test in all cases: cell-based or functional assay
[1] = target: S protein of authentic SARS-CoV-2 Omicron BA.1 virus (SARS-CoV-2, UniProt P0DTC2 14-1273)
[2] = target: S protein of authentic SARS-CoV-2 Omicron BA.2 virus (SARS-CoV-2, UniProt P0DTC2 14-1273)
[3] = target: S protein of authentic SARS-CoV-2 Omicron BA.5 virus (SARS-CoV-2, UniProt P0DTC2 14-1273)
[4] = target: S protein (SΔ19) of Omicron BQ.1.1 pseudovirus (SARS-CoV-2, UniProt P0DTC2 14-1254)
[5] = target: S protein (SΔ19) of Omicron BQ.1 pseudovirus (SARS-CoV-2, UniProt P0DTC2 14-1254)

| Binder | IC50, microneutralization assay with authentic virus [1] [nM] | fold increase of neutralization activity over parental IgG, authentic virus [1] [fold] | IC50, microneutralization assay with authentic virus [2] [nM] | fold increase of neutralization activity over parental IgG, authentic virus [2] [fold] | IC50, microneutralization assay with authentic virus [3] [nM] | fold increase of neutralization activity over parental IgG, authentic virus [3] [fold] | IC50, pseudovirus assay (HIV platform) [4] [nM] | fold increase of neutralizing activity compared to IgG, pseudovirus [4] [fold] | IC50, pseudovirus assay (HIV platform) [5] [nM] | fold increase of neutralizing activity compared to IgG, pseudovirus [5] [fold] | fold more potent in neutralizing than IgG, authentic virus [3] [fold] |
| --- | --- | --- | --- | --- | --- | --- | --- | --- | --- | --- | --- |
| DXP-604 monomeric IgA1 (antibody) heavy: not shown light: DIQLTQSPSFLSASVGDRVTITCRASQGISSDLAWYQQKPGKAPNLLIYAASTLQSGVPSRFSGSGSGTEFTLTISSLQPEDFATYYCQQLNSDLYTFGQGTKLEIKRTVAAPSVFIFPPSDEQLKSGTASVVCLLNNFYPREAKVQWKVDNALQSGNSQESVTEQDSKDSTYSLSSTLTLSKADYEKHKVYACEVTHQGLSSPVTKSFNRGEC | 3.43 | 6.7 | 0.16 | 17 | 0.35 | 35.5 |  |  |  |  |  |
| DXP-604 secretory IgA1 (antibody) heavy: not shown light: DIQLTQSPSFLSASVGDRVTITCRASQGISSDLAWYQQKPGKAPNLLIYAASTLQSGVPSRFSGSGSGTEFTLTISSLQPEDFATYYCQQLNSDLYTFGQGTKLEIKRTVAAPSVFIFPPSDEQLKSGTASVVCLLNNFYPREAKVQWKVDNALQSGNSQESVTEQDSKDSTYSLSSTLTLSKADYEKHKVYACEVTHQGLSSPVTKSFNRGEC chain 1: not shown chain 2: not shown | 0.44 |  | 0.03 |  | 0.09 |  | 1.59 | 5.5 | 1.41 | 6 |  |
| DXP-604 dimeric IgA1 (antibody) heavy: not shown light: DIQLTQSPSFLSASVGDRVTITCRASQGISSDLAWYQQKPGKAPNLLIYAASTLQSGVPSRFSGSGSGTEFTLTISSLQPEDFATYYCQQLNSDLYTFGQGTKLEIKRTVAAPSVFIFPPSDEQLKSGTASVVCLLNNFYPREAKVQWKVDNALQSGNSQESVTEQDSKDSTYSLSSTLTLSKADYEKHKVYACEVTHQGLSSPVTKSFNRGEC not shown | 0.38 |  | 0.06 |  | 0.13 |  | 4.88 | 1.8 | 3.2 | 2.6 | 92 |
